The data set is described as follows: amyloid nucleation score (Sup35N fusion, yeast selection) (log enrichment); library NNK1; higher = more nucleation; inactive = no reads after selection. The method in brief: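 Sup35N fusions to peptides of 20 random codons were expressed in psi-negative yeast, induced 24 hours with 100 μM copper sulfate, and grown 7 days at 30°C on medium lacking adenine and uracil. Input and output plasmid inserts were sequenced by Illumina. The nucleation score is the DiMSum log enrichment of output over input reads, centred on the mode score of non-aggregating sequences. Sequences with under 100 input reads were excluded.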

± gives the uncertainty stated by the source.

As for TVTWASGFMGGVDHCSWGQV, the amyloid nucleation score was determined as 0.043 ± 0.65.

Regarding FKSYWGSTWRSNSWVGDMRG, the amyloid nucleation score was -0.225 ± 0.46.

Consider ARTRVLMKQVQGFKSFTILH, for which the amyloid nucleation score is 0.192 ± 0.52.

In the case of FLMWMWLVSNRKHWLFTDKV, the amyloid nucleation score was -2.54 ± 2.7.

Regarding NGYIKRVFFSVNMFSMHTSF, the amyloid nucleation score is 0.079 ± 0.48.

As to VVATKLSV, the amyloid nucleation score is -0.95 ± 1.4.

FDKFKNSTVREFMWVEFSVG came in with an amyloid nucleation score of 0.745 ± 0.74.

In turn, GLLRAA had an amyloid nucleation score of 0.296 ± 0.27.

As to PLVKGIHSNPRTYTTMYYSY, the amyloid nucleation score is -1.93 ± 2.7.

CFWRNFDRGEAS yielded an amyloid nucleation score of 0.94 ± 0.97.

In turn, LHNERRSVISTPYRQSEAGL registered an amyloid nucleation score of 0.707 ± 0.43.

As for HGSVRSLSYRLVSLYLSRMC, the amyloid nucleation score is 0.748 ± 0.45.

For CCVNVPIFRRKFGTCSCKAW, the amyloid nucleation score came to 0.065 ± 0.93.

As for LLMVREDRRRFRSFGS, the amyloid nucleation score stood at 0.773 ± 0.76.

In the case of GHGALSCMMNFHSTGGKVKS, the amyloid nucleation score was 0.667 ± 0.68.

The substance EGSVGHRMVSWVFISYTLVL returned an amyloid nucleation score of 0.006 ± 1.1.

As to DRMLLMVCIVWNRFVKGFPH, the amyloid nucleation score result is “inactive”.

In turn, GVCFLAR had an amyloid nucleation score of 0.707 ± 0.74.

Regarding FMCIPV, the amyloid nucleation score is 0.189 ± 0.55.

Turning to ISLGCNDSGLRIG, the amyloid nucleation score is -0.935 ± 0.84.

The substance YFSHTSWLYFSTPFIVVVRV registered an amyloid nucleation score of 0.25 ± 0.97.

SGTTRWCRGGV returned an amyloid nucleation score of 0.127 ± 0.74.

For IINRNYI, the amyloid nucleation score worked out at 1.1 ± 0.84.

VIYFLRYHLFNSLVSPHNRR: the amyloid nucleation score entry was “inactive”.

Regarding KNSLTTKVLLCTLAATL, the amyloid nucleation score stood at 0.603 ± 0.73.

For TSRALRREIARLKAYGSMMV, the amyloid nucleation score result is “inactive”.

For VNSSPFFMYKGVHFTWTYYS, the amyloid nucleation score came to 4.51 ± 0.1.

Substance LSSVNGVLGRIGHLVAPSSF registered an amyloid nucleation score of -0.066 ± 1.

For the substance WGKYSD, the amyloid nucleation score came to 0.343 ± 0.7.

Substance YFAPFRGTSWFTRSCN registered an amyloid nucleation score of -0.011 ± 0.79.

With LFRFCTIILLAYGLSLCNDI, the amyloid nucleation score result is “inactive”.

As to IWEFSWLYMLKVMRSGFSYN, the amyloid nucleation score was -0.282 ± 0.44.

Turning to SRFWKRVHAYTAVISEMYSA, the amyloid nucleation score was -0.132 ± 0.52.

With SRPNDMFTALVYTCYLPNK, the amyloid nucleation score is -0.539 ± 0.6.

The substance SLVLDGVSTPPIDYLNLVLV displayed an amyloid nucleation score of -1.26 ± 0.76.

For the substance GTMTRWWFVVCTEKTAGTNR, the amyloid nucleation score was determined as 0.374 ± 0.44.

Take HMRTNKVFPCYPWPFTYTPP: the amyloid nucleation score result was “inactive”.

In the case of NDRSFYQITKILHPRDASQN, the amyloid nucleation score was -1.08 ± 0.55.

On to CQELYLKFVVENFSTFLRNH, for which the amyloid nucleation score was -2.68 ± 2.7.

NLCRIRIARLQHGGRSTMSF displayed an amyloid nucleation score of 1 ± 0.73.

Regarding PCSKAFRAVNISEAKIDFGN, the amyloid nucleation score was -0.416 ± 0.5.

On to LSNRSKNDGKSRLIPMDDVH, for which the amyloid nucleation score entry is “inactive”.

As to PCWTNSLLKPPVGIR, the amyloid nucleation score is -0.281 ± 1.1.

As for SSMLSISVFEWITFRWR, the amyloid nucleation score was 0.181 ± 0.58.

GLIQYPGFIASMYPSDNTSC returned an amyloid nucleation score of 0.135 ± 0.41.

LDSARMGLFITGMV returned an amyloid nucleation score of -1.06 ± 0.87.

As to RDAVFGPAGVLQI, the amyloid nucleation score was -0.122 ± 1.6.

For ADARVQGLSRLWGSGFNRLP, the amyloid nucleation score was found to be 0.53 ± 0.51.

With RVRILITYM, the amyloid nucleation score was 1.18 ± 0.17.

As for ECCWLRVTRLGLWDDVVHSE, the amyloid nucleation score is -0.163 ± 0.33.

In turn, NCFRLLCFRGLVGQRGL yielded an amyloid nucleation score of 0.141 ± 0.59.

Take VCSSLFSSCPL: the amyloid nucleation score was 0.735 ± 0.37.

APSSKF came in with an amyloid nucleation score of 0.062 ± 1.1.

The substance MTSCDWTTTKSSDVAPDWRM gave an amyloid nucleation score of 0.424 ± 0.52.

The substance YVIKKWTTCVLDFWHHFSFR registered an amyloid nucleation score of 0.583 ± 0.48.

Regarding VDHISCCVFVMAVHMELALR, the amyloid nucleation score is -1.07 ± 1.8.

For the substance FPYILMKRAKQYALGPRHLL, the amyloid nucleation score was -0.435 ± 0.32.

Substance TGNTIAVRLLGKTNWTLIKT yielded an amyloid nucleation score of -0.1 ± 0.23.

IETWCVKWFH registered an amyloid nucleation score of -0.299 ± 0.32.

As to DCLRILDGQYRRRIDRALRV, the amyloid nucleation score came to 0.09 ± 0.7.

VRVSVLLVYSGGRFSFPWVL showed an amyloid nucleation score of -0.063 ± 1.4.

As to VHAHVSREIFTGQ, the amyloid nucleation score came to 0.659 ± 1.

ADSFSI: the amyloid nucleation score is -0.118 ± 0.44.

Take GGKVGREQTIW: the amyloid nucleation score was -0.123 ± 0.89.

Substance HFVAVFMFYGWPSWYSYSES yielded an amyloid nucleation score of -0.93 ± 0.35.

Substance CSGNRMDPLTVRLFVGLGIL came in with an amyloid nucleation score of 0.347 ± 0.43.

On to TVFFDYDDIYLVNSVFRSAV, for which the amyloid nucleation score is -0.113 ± 0.44.

The substance MVLFKELIMVFTQARAS gave an amyloid nucleation score of 0.156 ± 0.28.

Take VYLNFTISKVEVVTFFFIMG: the amyloid nucleation score was 0.165 ± 0.34.

As to FSYTDNSTRFVTFQLRNIPA, the amyloid nucleation score came to 0.598 ± 0.33.

In the case of CDRLIKVSYRFIGAADRRWM, the amyloid nucleation score was found to be 1.35 ± 0.76.

In turn, ISVMEFFVISGFTNWVKCFV showed an amyloid nucleation score of 1.06 ± 0.31.

In the case of MRTVIITCCRTFECPMERCS, the amyloid nucleation score was -2.56 ± 1.4.

Substance TVLVYRGFTEGCSHFSWPSN yielded an amyloid nucleation score of 0.302 ± 0.8.

On to CKRWRSILVKSSRSIMGTDV, for which the amyloid nucleation score was -0.171 ± 1.1.

In the case of TFTCSFTQLRQLFFFVSQGC, the amyloid nucleation score is 0.214 ± 0.46.

As to EKRLYGYLKDHLE, the amyloid nucleation score is -0.605 ± 0.35.

In turn, FSSWQGMGKQYWPERIRCAD had an amyloid nucleation score of 0.425 ± 0.46.

In turn, TQVIAPVVCMAIDYCANITV had an amyloid nucleation score of 4.96 ± 0.099.

The substance LGPYQTCR yielded an amyloid nucleation score of 1.58 ± 0.72.

Substance MAKSGNEI yielded an amyloid nucleation score of 0.062 ± 0.79.

In turn, IVNVAGNV displayed an amyloid nucleation score of 0.803 ± 0.45.

MRIPVRLVV gave an amyloid nucleation score of 0.027 ± 0.54.

RINLVSVYDRSNDKVSIPS came in with an amyloid nucleation score of 0.454 ± 0.55.

As for VIFSNWVTAGFACFMHLLVR, the amyloid nucleation score worked out at 0.398 ± 0.9.

For DSYDTTSNRAPVMLKVNYSM, the amyloid nucleation score was -0.692 ± 0.64.

The substance YSFALSVG came in with an amyloid nucleation score of 0.874 ± 0.43.

Consider NVRRLIFIMLKLDAICYWSS, for which the amyloid nucleation score was -0.695 ± 1.1.

Substance WVVVDTLVRTGGCCWGYWKT displayed an amyloid nucleation score of 1.91 ± 0.27.

Regarding RRLLISPMTYVSDLASIQGC, the amyloid nucleation score amounted to 0.175 ± 0.26.

KWSSRCQWDWTLLGTCLAL came in with an amyloid nucleation score of 0.29 ± 0.3.

As for YYWVT, the amyloid nucleation score is -1.16 ± 2.4.

FLYVVARY had an amyloid nucleation score of 0.19 ± 0.71.

Substance VLVKQGVMA registered an amyloid nucleation score of 0.868 ± 0.78.

FFRTLTWR had an amyloid nucleation score of 1.11 ± 0.55.

ADCFCNRFNVICVKHYGSAR yielded an amyloid nucleation score of 0.159 ± 0.42.

The substance IASVWFRCFHRNRLVWSLRR gave an amyloid nucleation score of 0.214 ± 0.44.

For the substance AFVTSRPYWGNSVVEAHLVG, the amyloid nucleation score is 1.69 ± 0.19.

With YLFRLVTVFNVVKATLVVTV, the amyloid nucleation score is -0.289 ± 0.92.

On to CNYCIWPARFVVIHDAMCVS, for which the amyloid nucleation score is -0.98 ± 1.1.

For the substance IMLNLFHYGSSLQQFKTHH, the amyloid nucleation score amounted to 7.325 ± 0.054.

Consider LDVCCEYPSKSSVMEWQVWL, for which the amyloid nucleation score was found to be 1.02 ± 0.54.

As to PWPVSFYFMVNIVWCGRVIL, the amyloid nucleation score was determined as 1.06 ± 0.26.

As to MDKLMSMELLSFLGNRSVHV, the amyloid nucleation score result was “inactive”.

FNDFSLSYARFCINSMNRYP gave an amyloid nucleation score of 0.968 ± 0.13.

As to HICSRDVLLRQY, the amyloid nucleation score came to 1.41 ± 0.8.

The substance SVFELLCSPQSVNRTFNTPY returned an amyloid nucleation score of 1.09 ± 0.36.

The substance CFSISVTAYHSKSAT showed an amyloid nucleation score of 4.14 ± 0.099.

For the substance ILIGRPQYIDRYMSSCVIIL, the amyloid nucleation score result is “inactive”.

For NISSIASVWVCVKVRYVSYS, the amyloid nucleation score is 0.432 ± 0.59.

With RAKLFHWLNWR, the amyloid nucleation score was 0.282 ± 0.67.

As to RDCFIRGKWCTCWHWCEGGE, the amyloid nucleation score came out at 1.34 ± 0.27.

The substance YSFGVSTWLI gave an amyloid nucleation score of -0.396 ± 0.74.

In turn, AGFSTHSSGCVGECVGQRT registered an amyloid nucleation score of 0.32 ± 0.69.

As for FDGVRARDALFSGCL, the amyloid nucleation score was -0.705 ± 0.59.

Substance AANCTMMFKKPSWNVTRERV displayed an amyloid nucleation score of 0.26 ± 0.34.

SYILCHWTFGDKGRFPQNYR registered an amyloid nucleation score of 2.3 ± 0.18.

Regarding LVFVTWLSMHVNTTGVFSLS, the amyloid nucleation score was 0.242 ± 0.41.

On to FNLRTIARDL, for which the amyloid nucleation score is -1.68 ± 0.97.

The substance LFFLLLNHRAVVVLLWCHFT displayed an amyloid nucleation score of -1.19 ± 0.91.

Turning to VTHGHVGTVGSWVVRTTAFM, the amyloid nucleation score is -0.937 ± 2.1.

The substance VVMNLLVLIGYLSSLYFLQA displayed an amyloid nucleation score of -1.04 ± 1.9.

Substance FRSFNGTCSGVQWSVFVIWV displayed an amyloid nucleation score of -0.18 ± 0.77.

Take GAVICICCIIIGKYC: the amyloid nucleation score was found to be 3.74 ± 0.082.

As to LWRLEWLLSGQRGTSPAVRV, the amyloid nucleation score was 0.764 ± 0.55.

For the substance TLRVLFFKCLGHIRLLVRGF, the amyloid nucleation score was -1.64 ± 2.7.

Regarding RSLLHCYHNKWMSVRTAFSP, the amyloid nucleation score stood at 0.642 ± 0.66.

Substance IGYSGYY had an amyloid nucleation score of -0.296 ± 0.41.

For RMVLPVSNLFCAFPGTGGGS, the amyloid nucleation score was -0.577 ± 0.32.

Substance DWNVQGQWFHQC came in with an amyloid nucleation score of 0.677 ± 0.72.

Consider VMKLAVRR, for which the amyloid nucleation score was -0.114 ± 0.91.

NLNSMAFV returned an amyloid nucleation score of 0.662 ± 0.56.

For the substance AFAFEYCRTSRIFCQGMEWQ, the amyloid nucleation score came out at 1.05 ± 0.6.

In turn, VGLDLALSYHFAQG displayed an amyloid nucleation score of 4.8 ± 0.087.

As for SEKGCYYIGSLTGR, the amyloid nucleation score stood at 0.184 ± 1.2.

Substance NINFGVVSYSVYMLL registered an amyloid nucleation score of 6.649 ± 0.054.

In turn, NKRVHWLSGRLWIWYHWWVI showed an amyloid nucleation score of -1.5 ± 1.7.

In turn, IYACRGQRVMRTRIKCVVIW displayed an amyloid nucleation score of 0.525 ± 0.72.

DKRNVASYDSMCQLLAILFN: the amyloid nucleation score amounted to 0.512 ± 0.34.

For INSQSTATN, the amyloid nucleation score came to 0.593 ± 0.31.

Values taken from the supplement of paper PMC12042874.
